The target of the series is T1, FAM-αC-conotoxin PrXA (Conus parius, UniProt P0C8S5 52-83).
T1 chain: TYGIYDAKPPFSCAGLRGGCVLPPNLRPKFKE
Briefly: fluorescence anisotropy; no anisotropy change. The settings on record: tags: 5,6-carboxyfluorescein (FAM). (Fluorescence polarisation rises when a labelled molecule tumbles more slowly, as on binding a larger partner.)

B1: S1 scramble (ssDNA)
DNA: GCCTGTTGTGAGCCTCCTGTCGAAGGGGATGGACCCCTACTTCATTCGCCCGCCTTGAGCGTTTATTCTTGTCTCCC
Turning to B1, the binding result is on record as “no binding”.

Values taken from PMC5543128.
